This note sets out measurements from patent US20240158475A1.

The chains are these.
B1: Mutation 1-30 (antibody, V domains shown)
VH: EVQLQQSGTELVRPGALVKLSCKASGFNIKDYYVHWVKQRPRQGLEWIGWIDPENGKTIYDPKFQDKASITSDTSTNTAYLQLRSLTSEDTAVYYCVTAYFRFVYWGQGTLVTVSA
VL: QIVLTQSPAIMSAFPGERVTMTCSASSSVRYMYWHQQKPGSSPRLLIYDTSNIASGVPVRFSGSGSGTSYSLTISRDEAMDAATYYCQQWSSYPRTFGGGTKLEIKR
B2: Mutation 1-33 (antibody, V domains shown)
VH: EVQLQQSGTELVRPGALVKLSCKASGFNIKDYYVHWVKQRPRQGLEWIGWIDPENGKTLYDPKFQDKASITSDTSTNTAYLQLRSLTSEDTAVYYCVTAYYRFVYWGQGTLVTVSA
VL: QIVLTQSPAIMSAFPGERVTMTCSASTSVRYMYWHQQKPGSSPRLLIYDTSNIASGVPVRFSGSGSGTSYSLTISRDEAMDAATYYCQQWSSYPRTFGGGTKLEIKR
B3: Mutation 1-41 (antibody, V domains shown)
VH: EVQLQQSGTELVRPGALVKLSCKASGFNIKDYYLHWVKQRPRQGLEWIGWIDPENGKTIYDPKFQDKASITSDTSTNTAYLQLRSLTSEDTAVYYCVSAYYRFVYWGQGTLVTVSA
VL: QIVLTQSPAIMSAFPGERVTMTCSASTSVRYMYWHQQKPGSSPRLLIYDTSNIASGVPVRFSGSGSGTSYSLTISRDEAMDAATYYCQQWSSYPRTFGGGTKLEIKR
B4: Mutation 1-37 (antibody, V domains shown)
VH: EVQLQQSGTELVRPGALVKLSCKASGFNIKDYYIHWVKQRPRQGLEWIGWIDPENGKTLYDPKFQDKASITSDTSTNTAYLQLRSLTSEDTAVYYCVSAYYRFVYWGQGTLVTVSA
VL: QIVLTQSPAIMSAFPGERVTMTCSASTSVRYMYWHQQKPGSSPRLLIYDTSNVASGVPVRFSGSGSGTSYSLTISRDEAMDAATYYCQQWSSTPRTFGGGTKLEIKR
B5: Mutation 1-32 (antibody, V domains shown)
VH: EVQLQQSGTELVRPGALVKLSCKASGFNIKDYYLHWVKQRPRQGLEWIGWIDPENGKTIYDPKFQDKASITSDTSTNTAYLQLRSLTSEDTAVYYCVTAYFRFVYWGQGTLVTVSA
VL: QIVLTQSPAIMSAFPGERVTMTCSASSSVRYMYWHQQKPGSSPRLLIYDTSNIASGVPVRFSGSGSGTSYSLTISRDEAMDAATYYCQQWSSTPRTFGGGTKLEIKR
B6: Mutation 1-39 (antibody, V domains shown)
VH: EVQLQQSGTELVRPGALVKLSCKASGFNIKDYYVHWVKQRPRQGLEWIGWIDPENGKTIYDPKFQDKASITSDTSTNTAYLQLRSLTSEDTAVYYCVTAYFRFVYWGQGTLVTVSA
VL: QIVLTQSPAIMSAFPGERVTMTCSASTSVRYMYWHQQKPGSSPRLLIYDTSNLASGVPVRFSGSGSGTSYSLTISRDEAMDAATYYCQQWSSFPRTFGGGTKLEIKR
B7: Mutation 1-34 (antibody, V domains shown)
VH: EVQLQQSGTELVRPGALVKLSCKASGFNIKDYYIHWVKQRPRQGLEWIGWIDPENGKTIYDPKFQDKASITSDTSTNTAYLQLRSLTSEDTAVYYCVSAYVRFVYWGQGTLVTVSA
VL: QIVLTQSPAIMSAFPGERVTMTCSASSSVRYMYWHQQKPGSSPRLLIYDTSNLASGVPVRFSGSGSGTSYSLTISRDEAMDAATYYCQQWSSFPRTFGGGTKLEIKR
B8: Mutation 1-38 (antibody, V domains shown)
VH: EVQLQQSGTELVRPGALVKLSCKASGFNIKDYYLHWVKQRPRQGLEWIGWIDPENGKTLYDPKFQDKASITSDTSTNTAYLQLRSLTSEDTAVYYCVTAYFRFVYWGQGTLVTVSA
VL: QIVLTQSPAIMSAFPGERVTMTCSASSSVRYMYWHQQKPGSSPRLLIYDTSNIASGVPVRFSGSGSGTSYSLTISRDEAMDAATYYCQQWSSYPRTFGGGTKLEIKR
B9: WT 1-1 (antibody, V domains shown)
VH: EVQLQQSGTELVRPGALVKLSCKASGFNIKEYYIHWVKQRPRQGLEWIGWIDPDNGKTIYDPKVQDKASITSDTSTNTAYLQLRSLTSEDTAVYYCVTAYFRFVYWGQGTLVTVSA
VL: QIVLTQSPAIMSAFPGERVTMTCSASTSVKYMYWHQQKPGSSPRLLIYETSNIASGFPVRFSGSGSGTSYSLTISRDEAMDAATYYCQQQSSYPRTFGGGTKLEIKR
B10: Mutation 1-40 (antibody, V domains shown)
VH: EVQLQQSGTELVRPGALVKLSCKASGFNIKDYYIHWVKQRPRQGLEWIGWIDPENGKTLYDPKFQDKASITSDTSTNTAYLQLRSLTSEDTAVYYCVTAYVRFVYWGQGTLVTVSA
VL: QIVLTQSPAIMSAFPGERVTMTCSASSSVRYMYWHQQKPGSSPRLLIYDTSNVASGVPVRFSGSGSGTSYSLTISRDEAMDAATYYCQQWSSTPRTFGGGTKLEIKR
B11: Mutation 1-35 (antibody, V domains shown)
VH: EVQLQQSGTELVRPGALVKLSCKASGFNIKDYYLHWVKQRPRQGLEWIGWIDPENGKTLYDPKFQDKASITSDTSTNTAYLQLRSLTSEDTAVYYCVSAYYRFVYWGQGTLVTVSA
VL: QIVLTQSPAIMSAFPGERVTMTCSASTSVRYMYWHQQKPGSSPRLLIYDTSNVASGVPVRFSGSGSGTSYSLTISRDEAMDAATYYCQQWSSTPRTFGGGTKLEIKR
B12: Mutation 1-36 (antibody, V domains shown)
VH: EVQLQQSGTELVRPGALVKLSCKASGFNIKDYYVHWVKQRPRQGLEWIGWIDPENGKTIYDPKFQDKASITSDTSTNTAYLQLRSLTSEDTAVYYCVTAYFRFVYWGQGTLVTVSA
VL: QIVLTQSPAIMSAFPGERVTMTCSASSSVRYMYWHQQKPGSSPRLLIYDTSNLASGVPVRFSGSGSGTSYSLTISRDEAMDAATYYCQQWSSFPRTFGGGTKLEIKR
B13: Mutation 1-31 (antibody, V domains shown)
VH: EVQLQQSGTELVRPGALVKLSCKASGFNIKDYYIHWVKQRPRQGLEWIGWIDPENGKTLYDPKFQDKASITSDTSTNTAYLQLRSLTSEDTAVYYCVTAYVRFVYWGQGTLVTVSA
VL: QIVLTQSPAIMSAFPGERVTMTCSASTSVRYMYWHQQKPGSSPRLLIYDTSNLASGVPVRFSGSGSGTSYSLTISRDEAMDAATYYCQQWSSFPRTFGGGTKLEIKR

The test deals with DN-III quality control recombinant protein (produced by Fapon Biotech InC.) (dengue virus). Kind of test: BLI, AMC sensor, antibody captured. Background: Biolayer interferometry detects binding as a change in optical thickness at a sensor tip.
As to B1, the Kd was 950 pM, the koff was 3.56e-05 s⁻¹ and the kon was 37600 M⁻¹ s⁻¹.

As for B2, the Kd stood at 990 pM, the dissociation rate constant (koff) is 4.68e-05 s⁻¹ and the kon stood at 47500 M⁻¹ s⁻¹.

For B3, the Kd was found to be 790 pM, the koff was found to be 3.47e-05 s⁻¹ and the on-rate (kon) was determined as 44100 M⁻¹ s⁻¹.

With B4, the equilibrium dissociation constant (Kd) worked out at 350 pM, the koff was 1.71e-05 s⁻¹ and the kon came to 48500 M⁻¹ s⁻¹.

As for B5, the Kd worked out at 350 pM, the koff turned out to be 1.23e-05 s⁻¹ and the kon stood at 35200 M⁻¹ s⁻¹.

As to B6, the dissociation constant (Kd) was 830 pM, the koff turned out to be 3.75e-05 s⁻¹ and the kon was 45100 M⁻¹ s⁻¹.

For the molecule B7, the dissociation constant (Kd) turned out to be 440 pM, the koff worked out at 1.34e-05 s⁻¹ and the kon came out at 30600 M⁻¹ s⁻¹.

On to B8, for which the dissociation constant Kd was 360 pM, the koff amounted to 1.37e-05 s⁻¹ and the kon was found to be 37800 M⁻¹ s⁻¹.

In the case of B9, the Kd was 6000 pM, the off-rate (koff) was 2.28e-05 s⁻¹ and the on-rate constant (kon) is 3770 M⁻¹ s⁻¹.

With B10, the Kd worked out at 115 pM, the off-rate constant (koff) came to 4.95e-05 s⁻¹ and the kon came out at 432000 M⁻¹ s⁻¹.

For B11, the equilibrium dissociation constant (Kd) was found to be 1040 pM, the koff came out at 4.35e-05 s⁻¹ and the kon was determined as 41900 M⁻¹ s⁻¹.

With B12, the Kd amounted to 340 pM, the dissociation rate constant (koff) stood at 1.53e-05 s⁻¹ and the kon stood at 44900 M⁻¹ s⁻¹.

Regarding B13, the Kd came to 115 pM, the dissociation rate constant (koff) worked out at 3.94e-05 s⁻¹ and the on-rate constant (kon) turned out to be 344000 M⁻¹ s⁻¹.

In general, Kd refers to the equilibrium constant for the complex coming apart. The koff is the first-order rate constant of dissociation. Usually kon stands for a measure of how fast the partners come together.
